Data taken from paper PMC3869383.

Assays:
[1] = biological target: recombinant base variant NT5 (C-terminal tail of Rpt5 truncated) (S. cerevisiae) (UniProt P33299); assay: ATPase-repression titration
[2] = biological target: recombinant base variant NT2 (C-terminal tail of Rpt2 truncated) (S. cerevisiae) (UniProt P33299); assay: ATPase-repression titration
[3] = biological target: 20S core particle purified from S. cerevisiae (S. cerevisiae (endogenous in yeast)) (UniProt P22141)
[4] = biological target: 20S core particle purified from S. cerevisiae (S. cerevisiae (endogenous in yeast)) (UniProt P22141); assay: peptidase-stimulation

peptidase stimulation, % of WT base [3] [% WT]	Substance	also measured
	20S core particle purified from S. cerevisiae (from UniProt P22141 1-198) (complex)	fold lower affinity than wild-type base [1]: 5.6 fold; fold lower affinity than wild-type base [2]: 1.3 fold
192	recombinant base variant DN4 (pore-2 loop DN in Rpt4) (from UniProt P33299;P40327;P33298;P53549;P33297;Q01939;P38764;P32565;O13563) (complex)	
84	recombinant base variant DN6 (pore-2 loop DN in Rpt6) (from UniProt P33299;P40327;P33298;P53549;P33297;Q01939;P38764;P32565;O13563) (complex)	
110	recombinant base variant EN2 (pore-2 loop EN in Rpt2) (from UniProt P33299;P40327;P33298;P53549;P33297;Q01939;P38764;P32565;O13563) (complex)	
95	recombinant base variant EQ4 (Walker-B EQ in Rpt4) (from UniProt P33299;P40327;P33298;P53549;P33297;Q01939;P38764;P32565;O13563) (complex)	
118	recombinant base variant EQ5 (Walker-B EQ in Rpt5) (from UniProt P33299;P40327;P33298;P53549;P33297;Q01939;P38764;P32565;O13563) (complex)	
10	recombinant base variant KS2 (Walker-A KS in Rpt2) (from UniProt P33299;P40327;P33298;P53549;P33297;Q01939;P38764;P32565;O13563) (complex)	
58	recombinant base variant KS3 (Walker-A KS in Rpt3) (from UniProt P33299;P40327;P33298;P53549;P33297;Q01939;P38764;P32565;O13563) (complex)	
59	recombinant base variant KS5 (Walker-A KS in Rpt5) (from UniProt P33299;P40327;P33298;P53549;P33297;Q01939;P38764;P32565;O13563) (complex)	
54	recombinant base variant KS6 (Walker-A KS in Rpt6) (from UniProt P33299;P40327;P33298;P53549;P33297;Q01939;P38764;P32565;O13563) (complex)	
10	recombinant base variant NT2 (C-terminal tail of Rpt2 truncated) (from UniProt P33299;P40327;P33298;P53549;P33297;Q01939;P38764;P32565;O13563) (complex)	
5	recombinant base variant NT3 (C-terminal tail of Rpt3 truncated) (from UniProt P33299;P40327;P33298;P53549;P33297;Q01939;P38764;P32565;O13563) (complex)	
108	recombinant base variant NT4 (C-terminal tail of Rpt4 truncated) (from UniProt P33299;P40327;P33298;P53549;P33297;Q01939;P38764;P32565;O13563) (complex)	
7	recombinant base variant NT5 (C-terminal tail of Rpt5 truncated) (from UniProt P33299;P40327;P33298;P53549;P33297;Q01939;P38764;P32565;O13563) (complex)	
84	recombinant base variant YA1 (pore-1 loop YA in Rpt1) (from UniProt P33299;P40327;P33298;P53549;P33297;Q01939;P38764;P32565;O13563) (complex)	
38	recombinant base variant YA2 (pore-1 loop YA in Rpt2) (from UniProt P33299;P40327;P33298;P53549;P33297;Q01939;P38764;P32565;O13563) (complex)	Kd [4]: 138 nM
110	recombinant base variant with the Walker-B EQ mutation in all six Rpt subunits (from UniProt P33299;P40327;P33298;P53549;P33297;Q01939;P38764;P32565;O13563) (complex)	
